Experiment [1] has as its target human FcγRIIIa (F158 allele) (human) (UniProt P08637).
Experiment [2] deals with human FcγRIIIa (V158 allele) (human) (UniProt P08637).
Experiment [3] addresses human FcγRIIa (H131 allele) (human) (UniProt P12318).
Experiment [4] deals with human FcγRIIb (human) (UniProt P31994).
Experiment [5] deals with human C1q (human) (UniProt P02745). Description: MSD [cont'd].
The target of experiment [6] is human FcRn (human) (UniProt P55899). Description: MSD [cont'd].
The target of experiment [7] is human FcγRIIIa (F158 allele) (human) (UniProt P08637). Description: MSD [cont'd].
Sequence of human FcγRIIIa (F158 allele) (human) (P08637 17-208 limits assumed): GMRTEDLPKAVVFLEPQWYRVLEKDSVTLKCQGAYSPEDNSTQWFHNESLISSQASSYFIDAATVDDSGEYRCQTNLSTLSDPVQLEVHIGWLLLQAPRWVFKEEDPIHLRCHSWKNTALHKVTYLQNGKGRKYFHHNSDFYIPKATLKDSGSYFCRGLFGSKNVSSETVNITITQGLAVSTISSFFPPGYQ
For experiment [8], the target named is human FcγRIIIa (V158 allele) (human) (UniProt P08637). The experiment in a line: MSD [cont'd].
Experiment [9] addresses human FcγRIIIb (human) (UniProt O75015). Description: MSD [cont'd].
The target in experiment [10] is human FcγRIIa (H131 allele) (human) (UniProt P12318). Description: MSD [cont'd].
Sequence of human FcγRIIa (H131 allele) (human) (P12318 34-218 limits assumed): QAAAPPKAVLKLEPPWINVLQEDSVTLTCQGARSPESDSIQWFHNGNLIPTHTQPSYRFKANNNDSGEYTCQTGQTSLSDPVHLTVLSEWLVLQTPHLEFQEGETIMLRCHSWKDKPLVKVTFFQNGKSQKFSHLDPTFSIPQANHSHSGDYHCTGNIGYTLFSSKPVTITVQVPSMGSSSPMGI
Experiment [11] concerns the target human FcγRIIa (R131 allele) (human) (UniProt P12318). Description: MSD [cont'd].
Experiment [12] deals with human FcγRIIb (human) (UniProt P31994). The experiment in a line: MSD [cont'd].
Experiment [13] deals with human FcRn (human) (UniProt P55899). Description: MSD.
In experiment [14] the target is human FcγRIIIa (F158 allele) (human) (UniProt P08637). The experiment in a line: MSD.
Experiment [15] has as its target human FcγRIIIa (V158 allele) (human) (UniProt P08637). Description: MSD.
The target of experiment [16] is human FcγRIIIb (human) (UniProt O75015). The experiment in a line: MSD.
Sequence of human FcγRIIIb (human) (O75015 17-200 limits assumed): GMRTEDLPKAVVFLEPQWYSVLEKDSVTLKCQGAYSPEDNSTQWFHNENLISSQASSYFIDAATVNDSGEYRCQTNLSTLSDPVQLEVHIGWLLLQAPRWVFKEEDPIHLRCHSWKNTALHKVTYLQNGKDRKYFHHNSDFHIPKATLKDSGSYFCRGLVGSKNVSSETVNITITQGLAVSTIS
Experiment [17] deals with human FcγRIIa (H131 allele) (human) (UniProt P12318). The experiment in a line: MSD.
In experiment [18] the target is human FcγRIIa (R131 allele) (human) (UniProt P12318). Description: MSD.
Sequence of human FcγRIIa (R131 allele) (human) (P12318 34-218 H167R limits assumed): as the sequence (P12318 34-218 limits assumed) above, with H134R counted along it
For experiment [19], the target named is human FcγRIIb (human) (UniProt P31994). The experiment in a line: MSD.
Experiment [20] addresses human FcγRIIIa (V158 allele) (human) (UniProt P08637). The source holds these as a separate data set.
In experiment [21] the target is human C1q (human) (UniProt P02745). Description: MSD.
Experiment [22] deals with human FcγRIIIa (F158 allele) (human) (UniProt P08637). This is another data set of the same source.
Experiment [23] concerns the target human FcγRIIIa (V158 allele) (human) (UniProt P08637). This is another data set of the same source.
In experiment [24] the target is human FcγRIIa (H131 allele) (human) (UniProt P12318). This is another data set of the same source.
The target in experiment [25] is human FcγRIIb (human) (UniProt P31994). This is another data set of the same source.
For experiment [26], the target named is human FcRn (human) (UniProt P55899). The experiment in a line: MSD, pH 6 [cont'd].
For experiment [27], the target named is human FcγRIIb (human) (UniProt P31994). Description: MSD electrochemiluminescence binding assay; column IIB.
The target of experiment [28] is human FcRn (human) (UniProt P55899). The experiment in a line: MSD electrochemiluminescence binding assay; column FcRn.
In experiment [29] the target is human FcγRIIIb (human) (UniProt O75015). The experiment in a line: MSD electrochemiluminescence binding assay; column IIIB.
Experiment [30] addresses human FcγRIIa (H131 allele) (human) (UniProt P12318). Description: MSD electrochemiluminescence binding assay; column IIA_H.
Experiment [31] addresses human FcγRIIa (R131 allele) (human) (UniProt P12318). The experiment in a line: MSD electrochemiluminescence binding assay; column IIA_R.
Experiment [32] concerns the target human FcγRIIIa (F158 allele) (human) (UniProt P08637). Description: MSD electrochemiluminescence binding assay; column IIIA_F.
The target in experiment [33] is human FcγRIIIa (V158 allele) (human) (UniProt P08637). Description: MSD electrochemiluminescence binding assay; column IIIA_V.

Where “and” joins values, the source holds several entries; their conditions need not be identical. Identical values can stand only once. Like-named read-outs stand apart in the source and are kept apart here.

Sequence of human FcγRIIb (human) (P31994 43-217 limits assumed): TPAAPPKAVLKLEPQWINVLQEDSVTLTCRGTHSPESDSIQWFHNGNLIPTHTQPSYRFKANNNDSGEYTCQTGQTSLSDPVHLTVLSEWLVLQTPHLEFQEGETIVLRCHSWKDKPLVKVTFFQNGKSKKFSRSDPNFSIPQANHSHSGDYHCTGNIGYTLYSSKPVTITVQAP
Sequence of human C1q (human) (P02745 23-245 limits assumed, chain 1 of 3): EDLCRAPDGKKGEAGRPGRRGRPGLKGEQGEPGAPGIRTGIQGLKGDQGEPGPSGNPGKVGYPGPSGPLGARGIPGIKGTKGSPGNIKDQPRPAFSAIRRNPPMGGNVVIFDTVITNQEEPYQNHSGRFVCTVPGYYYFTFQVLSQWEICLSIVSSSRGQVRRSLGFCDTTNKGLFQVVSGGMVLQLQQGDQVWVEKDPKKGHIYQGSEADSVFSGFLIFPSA
Sequence of human C1q (human) (P02746 28-253 limits assumed, chain 2 of 3, further chain): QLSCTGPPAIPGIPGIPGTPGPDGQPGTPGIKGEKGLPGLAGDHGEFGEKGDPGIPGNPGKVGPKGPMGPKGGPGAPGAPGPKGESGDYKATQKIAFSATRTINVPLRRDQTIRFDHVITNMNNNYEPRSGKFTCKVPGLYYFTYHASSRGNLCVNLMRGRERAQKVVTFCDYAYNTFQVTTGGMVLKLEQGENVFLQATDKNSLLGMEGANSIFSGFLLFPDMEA
Sequence of human C1q (human) (P02747 29-245 limits assumed, chain 3 of 3, further chain): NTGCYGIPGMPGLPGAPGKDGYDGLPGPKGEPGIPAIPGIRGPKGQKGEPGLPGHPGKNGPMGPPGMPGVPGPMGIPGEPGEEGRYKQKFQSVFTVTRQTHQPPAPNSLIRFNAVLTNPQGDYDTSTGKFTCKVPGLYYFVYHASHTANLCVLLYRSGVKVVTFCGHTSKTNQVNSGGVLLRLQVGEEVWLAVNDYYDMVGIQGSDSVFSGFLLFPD
Sequence of human FcRn (human) (P55899 24-297 limits assumed, chain 1 of 2): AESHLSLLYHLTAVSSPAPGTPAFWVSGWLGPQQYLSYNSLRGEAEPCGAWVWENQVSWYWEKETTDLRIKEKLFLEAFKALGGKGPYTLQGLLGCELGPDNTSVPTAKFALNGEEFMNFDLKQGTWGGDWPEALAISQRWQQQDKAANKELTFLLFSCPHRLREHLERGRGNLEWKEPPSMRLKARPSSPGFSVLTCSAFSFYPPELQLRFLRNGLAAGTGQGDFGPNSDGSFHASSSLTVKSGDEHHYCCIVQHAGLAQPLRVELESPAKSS
Sequence of human FcRn (human) (chain, as listed by the source limits assumed, chain 2 of 2): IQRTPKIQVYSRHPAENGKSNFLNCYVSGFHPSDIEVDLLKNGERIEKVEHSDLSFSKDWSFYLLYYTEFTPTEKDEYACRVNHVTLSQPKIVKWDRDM
Sequence of human FcγRIIIa (V158 allele) (human) (P08637 17-208 F176V limits assumed): as the sequence (P08637 17-208 limits assumed) above, with F160V counted along it

On to “IgG1 antibody with Fc variant S239D_H268E_G236A”, for which the FcγR reporter signaling, fold-change vs wt [cont'd] is 12.8 fold in experiment [1], 5.22 fold in experiment [2], 2.15 fold in experiment [3] and 1.8 fold in experiment [4]. Moreover, the fold-change vs wt is 0.4 fold in [5]; 0.91 fold in experiment [6]; 16.3 fold in experiment [7]; 7.9 fold in [8]; 3.04 fold in experiment [9]; 11.7 fold in experiment [10]. In addition, the fold-change vs wt was determined as 53.5 fold in experiment [11] and 5.09 fold in [12].
As for GRLR (Fc-LS) (antibody), the fold-change vs FY1 rIgG1m3-MLNS is 0.69 fold in [13]; 0.25 fold in experiment [14]; 0.08 fold in experiment [15]; 0.7 fold in [16]; 0.28 fold in [17]; 0.38 fold in experiment [18]. In experiment [19], the fold-change vs FY1 rIgG1m3-MLNS was found to be 0.38 fold.
In the case of A330L_I332E (antibody), the FcγR reporter signaling, fold-change vs wt [cont'd] is 11.9 fold in experiment [1], 4.38 fold in experiment [2], 0.71 fold in experiment [3] and 0.69 fold in [4]. The fold-change vs wt in [5] turned out to be 0.03 fold; in experiment [6], 1.12 fold; in experiment [7] it was 11.9 fold; in [8], 3.52 fold; in experiment [9], 5.19 fold; in experiment [10], 0.42 fold. Moreover, the fold-change vs wt was determined as 0.52 fold in experiment [11] and 0.66 fold in [12].
Turning to L309T_P238D_P396L_T366A-afuc (antibody), the FcγR reporter signaling, fold to wt-fucose [cont'd] in experiment [20] is 0.16 fold.
On to “IgG1 antibody with Fc variant G236A (afucosylated)”, for which the fold-change (reference not given) was 0.16 fold in experiment [21]; 17.2 fold and 35.6 fold in [14]; 6.7 fold in experiment [15]; 2.1 fold and 1.8 fold in experiment [16]; 5.4 fold and 9.5 fold in experiment [17]; 6.1 fold and 9.9 fold in experiment [18]. Also, in [19], the fold-change (reference not given) is 0.6 fold and 1.1 fold.
In the case of “IgG1 antibody with Fc variant G236A_Y300L”, the fold-change vs FY1 rIgG1m3 in experiment [21] was determined as 0.98 fold; in experiment [14], 1 fold; in [15], 0.9 fold; in experiment [16] it was 0.97 fold; in [17], 18.2 fold; in experiment [18] it was 4.6 fold. Further, the fold-change vs FY1 rIgG1m3 in experiment [19] was 1.1 fold.
As to GA (Fc-LS) (antibody), the fold-change vs FY1 rIgG1m3-MLNS in experiment [21] turned out to be 0.35 fold; in experiment [13], 0.95 fold; in experiment [14], 0.93 fold; in [15] it was 0.52 fold; in experiment [16] it was 0.84 fold; in [17], 10 fold. In addition, the fold-change vs FY1 rIgG1m3-MLNS in experiment [18] was found to be 6.9 fold; in [19], 1.1 fold.
As to G236A (antibody), the fold-change vs FY1 rIgG1m3 is 0.59 fold and 0.36 fold in experiment [21]; 0.6 fold and 0.8 fold in experiment [14]; 0.4 fold and 0.6 fold in [15]; 0.82 fold in experiment [16]; 5.9 fold and 12.1 fold in [17]; 4.8 fold and 6.3 fold in experiment [18]. Further, the fold-change vs FY1 rIgG1m3 in experiment [19] was 0.6 fold and 1.1 fold.
“G236A_A330L_I332E_M428L_N434S (antibody)”: the FcγR reporter signaling, fold-change vs wt [cont'd] in experiment [22] is 13.5 fold; in experiment [23], 3.92 fold; in experiment [24], 2.32 fold; in [25], 0.35 fold. Further, the fold-change vs FY1 rIgG1m3 turned out to be 12.3 fold in experiment [13]; 9.4 fold in experiment [14]; 1.6 fold in experiment [15]; 1.4 fold in experiment [16]; 2.9 fold in [17]; 1.3 fold in [18]. The fold-change vs FY1 rIgG1m3 in experiment [19] worked out at 0.4 fold. The fold-change vs FY1 rIgG1m3-MLNS stood at 0.68 fold in [13]; 14.4 fold in [14]; 2.1 fold in experiment [15]; 1.9 fold in experiment [16]; 3.8 fold in experiment [17]; 2.5 fold in experiment [18]. The fold-change vs FY1 rIgG1m3-MLNS in experiment [19] amounted to 0.8 fold. Further, the fold-change vs wt in experiment [14] came out at 9.41 fold; in [15], 1.56 fold; in experiment [16], 1.4 fold; in [17] it was 2.89 fold; in experiment [18], 1.27 fold; in experiment [19], 0.42 fold. For the same substance, the fold-change vs wt was 0 fold in [5] and 12.3 fold in experiment [6]. Also, the fold-change to WT Fc in [15] turned out to be 1.56 fold; in [17] it was 2.89 fold; in [19], 0.422 fold; in [26], 12.3 fold.
Consider G236A_S239D_A330L_I332E (antibody), for which the FcγR reporter signaling, fold-change vs wt [cont'd] in experiment [1] turned out to be 19.4 fold; in experiment [2], 6.02 fold; in experiment [3] it was 2.47 fold; in experiment [4], 1.2 fold. For the same substance, the fold-change vs wt in experiment [5] was found to be 0 fold; in experiment [6], 1.02 fold; in experiment [7], 55.1 fold; in [8], 8.03 fold; in experiment [9] it was 14 fold; in experiment [10], 5.15 fold. Further, the fold-change vs wt was found to be 9.68 fold in experiment [11] and 1.94 fold in [12].
L309T_P238D_P396L_T366A (antibody): the FcγR reporter signaling, fold-change vs wt [cont'd] in [1] came to 0.05 fold; in experiment [3], 0.04 fold; in experiment [4], 0.91 fold.
“IgG1 antibody with Fc variant G236A_L328V_Q295E”: the FcγR reporter signaling, fold-change vs wt [cont'd] was determined as 0.02 fold in experiment [22], 0.03 fold in experiment [23], 2.18 fold in [24] and 0.66 fold in experiment [25]. Besides, the fold-change vs FY1 rIgG1m3 in experiment [21] is 0.07 fold; in experiment [13], 1.1 fold; in experiment [14] it was 0.5 fold; in [15], 0.4 fold; in experiment [16], 0.7 fold; in experiment [17], 7.8 fold. The values for the fold-change vs FY1 rIgG1m3 in experiment [18] and in experiment [19] were 10.8 fold and 0.9 fold, respectively. Further, the fold-change vs wt came out at 0.52 fold in experiment [14]; 0.36 fold in [15]; 0.7 fold in [16]; 7.8 fold in experiment [17]; 10.8 fold in experiment [18]; 0.86 fold in experiment [19]. The fold-change vs wt came to 0.07 fold in [5] and 1.08 fold in experiment [6]. In addition, the fold-change in binding vs wild-type IgG1 in experiment [27] is 0.81; in experiment [28] it was 1.07; in experiment [29] it was 0.71; in [30] it was 7.76; in experiment [31] it was 10.7; in experiment [32], 0.52. In addition, the fold-change in binding vs wild-type IgG1 in experiment [33] turned out to be 0.36.

For the origin of these results see patent US20260184814A1, “BROADLY NE[…] INFLUENZA NEURAMINIDASE” (priority 2022, published 2026).
